# According to patent publication US5981229:
# Target: PlpA-PhoA fusion protein of strain SPRU98 (Streptococcus pneumoniae; E. coli)
substance,measurement,value
DsbA (from UniProt P0AEG4) (enzyme),alkaline phosphatase activity of SPRU98 whole bacteria (activity units per mg of total protein),138
